What was measured:
[1] = target: the molecule itself; assay: MST; apparent; RED-NHS labelled FL-RAD52 constant at 10 nM, unlabelled FL-RAD52 0.7 nM-25 μM; 25 °C; 25 mM Hepes pH 7.5, 5% glycerol, 250 mM NaCl, 0.05% Tween 20; step of self-association not stated
FL-RAD52 = target: T1, FL-RAD52 (Homo sapiens, UniProt P43351 1-418); assay: fluorescence polarization; apparent Kd; 10 nM DNA; FP: 25 mM Tris-HCl pH 7.5, 62.5 mM NaCl, 5% glycerol, 1 mM DTT, room temperature, 15 min; details: protein: recombinant; tags: His-tag (pET15b); label: 5'-6-FAM; single strand
T1 sequence: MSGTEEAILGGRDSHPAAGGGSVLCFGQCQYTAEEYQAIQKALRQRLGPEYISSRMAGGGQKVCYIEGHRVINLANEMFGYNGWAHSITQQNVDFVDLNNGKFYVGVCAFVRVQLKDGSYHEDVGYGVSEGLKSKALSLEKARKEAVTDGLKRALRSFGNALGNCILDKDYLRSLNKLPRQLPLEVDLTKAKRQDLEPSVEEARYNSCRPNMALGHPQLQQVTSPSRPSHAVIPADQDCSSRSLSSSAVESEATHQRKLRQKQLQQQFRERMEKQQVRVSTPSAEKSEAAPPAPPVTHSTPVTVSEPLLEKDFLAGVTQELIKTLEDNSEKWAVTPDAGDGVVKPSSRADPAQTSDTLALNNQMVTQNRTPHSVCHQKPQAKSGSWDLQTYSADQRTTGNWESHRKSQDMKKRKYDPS

B1: Human full-length RAD52 (FL-RAD52), 6xHis-tagged (natural protein, UniProt P43351 1-418, looked up)
chain: T1 sequence
notes: Human RAD52, full length, 418 amino acids (47 kDa); expression vector pET15b (Addgene, number not given); In the MST experiment the copy held at constant concentration was labelled with RED-NHS (amine dye NT-647-NHS); No tag cleavage is described; the SAXS deposit is named 'His-Tagged full-length'; also called DNA repair protein RAD52 homolog; source: E. coli BL21 (DE3) Rosetta pLysS, purified …
Kd [1]: 13 µM

B2: dT30 ssDNA (ssDNA)
DNA: TTTTTTTTTTTTTTTTTTTTTTTTTTTTTT
Kd (FL-RAD52): 37.2 ± 0.4 nM

Source: publication PMC11306251, “An integrative structural study of the human full-length RAD52 at 2.2 Å resolution” (Communications Biology, 2024)
